B1: HSV-1 terminase subunit pUL33 (natural protein)
chain: MAGREGRTRQRTLRDTIPDCALRSQTLESLDARYVSRDGAHDAAVWFEDMTPAELEVVFPTTDAKLNYLSRTQRLASLLTYAGPIKAPDDAAAPQTPDTACVHGELLAAKRERFAAVINRFLDLHQILRG
B2: HSV-1 terminase subunit pUL15 (His-pUL15) (natural protein)
chain: MFGQQLASDVQQYLERLEKQRQLKVGADEASAGLTMGGDALRVPFLDFATATPKRHQTVVPGVGTLHDCCEHSPLFSAVARRLLFNSLVPAQLKGRDFGGDHTAKLEFLAPELVRAVARLRFKECAPADVVPQRNAYYSVLNTFQALHRSEAFRQLVHFVRDFAQLLKTSFRASSLTETTGPPKKRAKVDVATHGRTYGTLELFQKMILMHATYFLAAVLLGDHAEQVNTFLRLVFEIPLFSDAAVRHFRQRATVFLVPRRHGKTWFLVPLIALSLASFRGIKIGYTAHIRKATEPVFEEIDACLRGWFGSARVDHVKGETISFSFPDGSRSTIVFASSHNTNGIRGQDFNLLFVDEANFIRPDAVQTIMGFLNQANCKIIFVSSTNTGKASTSFLYNLRGAADELLNVVTYICDDHMPRVVTHTNATACSCYILNKPVFITMDGAVRRTADLFLADSFMQEIIGGQARETGDDRPVLTKSAGERFLLYRPSTTTNSGLMAPDLYVYVDPAFTANTRASGTGVAVVGRYRDDYIIFALEHFFLRALTGSAPADIARCVVHSLTQVLALHPGAFRGVRVAVEGNSSQDSAVAIATHVHTEMHRLLASEGADAGSGPELLFYHCEPPGSAVLYPFFLLNKQKTPAFEHFIKKFNSGGVMASQEIVSATVRLQTDPVEYLLEQLNNLTETVSPNTDVRTYSGKRNGASDDLMVAVIMAIYLAAQAGPPHTFAPITRVS
B3: HSV-1 terminase heterotrimer (pUL15, pUL28, pUL33) (complex)
chain 1: B2 chain
chain 2: MAAPVSEPTVARQKLLALLGQVQTYVFQIELLRRCDPHIGRGKLPQLKLNALQVRALRRRLRPGLEAQAGAFLTPLSVTLELLLEYAWREGERLLGSLETFATAGDVAAFFTETMGLARPCPYHQRVRLDTYGGTVHMELCFLHDVENFLKQLNYCHLITPSRGATAALERVREFMVGAVGSGLIVPPELSDPSHPCAVCFEELCVTANQGATIARRLADRICNHVTQQAQVRLDANELRRYLPHAAGLSDADRARALSVLDHALARTAGGDGQPHPSPENDSVRKEADALLEAHDVFQATTPGLYAISELRFWLASGDRAGQTTMDAFASNLTALARRELQQETAAVAVELALFGRRAEHFDRAFGSHLAALDMVDALIIGGQATSPDDQIEALIRACYDHHLTTPLLRRLVSPEQCDEEALRRVLARMGAGGAADAPKGGAGPDDDGDRVAVEEGARGLGAPGGGGEDEDRRRGPGGQGPETWGDIATQAAADVRERRRLYADRLTKRSLASLGRCVREQRGELEKMLRVSVHGEVLPATFAAVANGFAARARFCALTAGAGTVIDNRSAPGVFDAHRFMRASLLRHQVDPALLPSITHRFFELVNGPLFDHSTHSFAQPPNTALYYSVENVGLLPHLKEELARFIMGAGGSGADWAVSEFQRFYCFDGISGITPTQRAAWRYIRELIIATTLFASVYRCGELELRRPDCSRPTSEGRYRYPPGVYLTYDSDCPLVAIVESAPDGCIGPRSVVVYDRDVFSILYSVLQHLAPRLPDGGHDGPP
chain 3: B1 chain

Assay in all cases: native MS
Data set [1] addresses Alcohol Dehydrogenase from Saccharomyces cerevisiae (Saccharomyces cerevisiae) (UniProt P00330).
Data set [2] has as its target HSV-1 terminase-associated protein pUL32 (Strep-pUL32) (herpes simplex virus 1 (HSV-1)) (UniProt P10216).
For data set [3], the target named is KSHV (HHV-8) pORF68 (TwinStrep-ORF68) (human herpesvirus 8 (KSHV HHV-8)).
In data set [4] the target is B2.
For data set [5], the target named is T1, HSV-1 terminase subunit pUL28 (herpes simplex virus 1 (HSV-1, strain …, UniProt P10212 1-785)).
T1 sequence: B3 chain 2

Data set [6] deals with the molecule itself.

These results are taken from article doi:10.1101/2025.02.22.639503 (bioRxiv, 2025).

“And” between values parts separate entries of the source, which are not always exact repeats. Identical values can stand only once.

The term stoichiometry N denotes the number of molecules, sites or subunits per partner or assembly. As to “Alcohol Dehydrogenase from Saccharomyces cerevisiae (from UniProt P00330 1-348) (enzyme)”, the stoichiometry N in data set [1] came to 4.

“HSV-1 terminase-associated protein pUL32 (Strep-pUL32) (from UniProt P10216 1-596) (natural protein)” had a stoichiometry N in data set [2] of 3.

Consider “KSHV (HHV-8) pORF68 (TwinStrep-ORF68) (natural protein)”, for which the stoichiometry N in data set [3] came out at 10.

For B1, the binding result in data set [4] is listed as “binds”.

Consider B2, for which, in data set [5], the binding result was “binds”.

Take B3: in data set [6], the “stoichiometry N” value was 2 and 3.
